In US6982249B1, “Bradykinin analogs as selective inhibitors of cell activation” (The Regents of the University of Michigan, priority 1997, dated 2006):
Entries after “also recorded” stand apart in the source; their conditions may differ.

What was measured:
[1] = system: human umbilical vein endothelial cells (HUVEC); test: α-thrombin-induced calcium mobilization in HUVEC; assay type: cell-based
Description: (§1) A variation of the calcium mobilization assay uses fibroblasts (which express a single receptor for thrombin, PAR 1), umbilical vein endothelial cells, or other cells which express the cloned thrombin receptor, and which grow in monolayers on the bottom of plastic wells.
(§2) Fibroblasts or endothelial cells were grown in 24-96 well plates and loaded with the fluorescent Ca^2+ indicator fura-2 acetyloxymethylester (5 μM, Molecular Probes Inc.) by incubation for 60 min. in HEPES-Tyrode's buffer at 37° C. After washing the cells, the fluorescence of the cells was monitored on a thermostatically controlled heated pad at 37° C. for 1 min, then the cells were incubated with α-thrombin (1 to 5 nM) in the absence or presence of a BK analog. Fluorescence was detected by a Perkin-Elmer LS-50B Luminescence Spectrofluorometer. Excitation was measured at 340 and 380 nm wavelength and emission was assessed at 510 nm. The cytosolic Ca^2+ levels were determined as described above. The Rmax value was determined using 10 mM Ca^2+ in the presence of 20 μM Ionophor A23187; Rmin was determined in the presence of 20 mM EDTA.
(§3) The ability of BK analogs to inhibit α-thrombin-induced calcium mobilization in fibroblasts and human umbilical vein endothelial cells (HUVEC) was assayed as described in Example 1C.

[2] = system: α-thrombin binding to platelets; test: 125I-α-thrombin binding to platelets; details: HK, LK, domain 3: molar excess
[3] = system: fibroblasts (thrombin receptor, PAR 1); test: α-thrombin-induced calcium mobilization in fibroblasts; assay type: cell-based
Description: as §1, §2, §3

B1: HK: human high molecular weight kininogen (protein, UniProt P01042 19-644, looked up)
Kininogen-1: QESQSEEIDCNDKDLFKAVDAALKKYNSQNQSNNQFVLYRITEATKTVGSDTFYSFKYEIKEGDCPVQSGKTWQDCEYKDAAKAATGECTATVGKRSSTKFSVATQTCQITPAEGPVVTAQYDCLGCVHPISTQSPDLEPILRHGIQYFNNNTQHSSLFMLNEVKRAQRQVVAGLNFRITYSIVQTNCSKENFLFLTPDCKSLWNGDTGECTDNAYIDIQLRIASFSQNCDIYPGKDFVQPPTKICVGCPRDIPTNSPELEETLTHTITKLNAENNATFYFKIDNVKKARVQVVAGKKYFIDFVARETTCSKESNEELTESCETKKLGQSLDCNAEVYVVPWEKKIYPTVNCQPLGMISLMKRPPGFSPFRSSRIGEIKEETTVSPPHTSMAPAQDEERDSGKEQGHTRRHDWGHEKQRKHNLGHGHKHERDQGHGHQRGHGLGHGHEQQHGLGHGHKFKLDDDLEHQGGHVLDHGHKHKHGHGHGKHKNKGKKNGKHNGWKTEHLASSSEDSTTPSAQTQEKTEGPTPIPSLAKPGVTVTFSDFQDSDLIATMMPPISPAPIQSDDDWIPDIQIDPNGLSFNPISDFPDTTSPKCPGRPWKSVSEINPTTQMKESYYFDLTDGLS
modifications: high molecular weight kininogen
[1]
  inhibition of α-thrombin-induced calcium mobilization in endothelial cells (FIG. 6): inhibited calcium mobilization; also recorded: inhibition
[2]
  inhibition of 125-α-thrombin binding to platelets: inhibit
[3]
  inhibition of α-thrombin-induced calcium mobilization in fibroblasts (FIG. 5): inhibited calcium mobilization; also recorded: inhibition
